Test results from US20100022456A1 (Novo Nordisk, published 2010).
Numbering of substitutions follows the chain as printed. Names and notes keep the numbering of the source.

T1: Ser-hPRLR(1-210) (human, UniProt P16471 25-234)
T1 construct: range 1-210; Amine-coupled to a CM5 chip in the SPR assay; also called soluble form of the receptor; PRL receptor
T1 sequence: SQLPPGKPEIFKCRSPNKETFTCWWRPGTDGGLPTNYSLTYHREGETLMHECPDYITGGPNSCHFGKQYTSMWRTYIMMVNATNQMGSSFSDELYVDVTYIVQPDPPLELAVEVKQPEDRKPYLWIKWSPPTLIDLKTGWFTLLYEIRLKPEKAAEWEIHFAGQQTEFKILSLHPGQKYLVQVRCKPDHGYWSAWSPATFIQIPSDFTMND

B1: Disulfide bridged PRL 12-199 Q12S E128C dimer (ligand)
chain: SVTLRDLFDRAVVLSHYIHNLSSEMFSEFDKRYTHGRGFITKAINSCHTSSLATPEDKEQAQQMNQKDFLSLIVSILRSWNEPLYHLVTEVRGMQEAPEAILSKAVEIEEQTKRLLCGMELIVSQVHPETKENEIYPVWSGLPSLQMADEESRLSAYYNLLHCLRRDSHKIDNYLKLLKCRIIHNNNC
modifications: intermolecular disulfide bridge between Cys 128 of the two monomers
notes: also called PRL dimer 1; 0033
B2: Disulfide bridged PRL 12-199 Q12S R125C dimer (ligand)
chain: B1 chain with R114C, C117E
modifications: intermolecular disulfide bridge between Cys 125 of the two monomers
B3: Disulfide bridged PRL 12-199 Q12S S61A E128C dimer (ligand)
chain: B1 chain with S50A
modifications: intermolecular disulfide bridge between Cys 128 of the two monomers
B4: PRL(12-199) Q12S G129R (ligand)
chain: B1 chain with C117E, G118R
notes: Monomeric prolactin receptor antagonist analogue; also called PRL G129R analog

Molecular target: T1, Ser-hPRLR(1-210)
Test: SPR (Biacore T100), receptor amine-coupled to CM5 chip, ligand injected
Experimental: The soluble form of the receptor (10 μg/ml in 10 mM sodium acetate, pH 4.0) was injected into a Biacore T100 instrument and coupled to a CM5 sensor chip by amine coupling chemistry. The immobilized level was about 500 RUs of coupled receptor. […] Regeneration was accomplished with 4.5 M MgCl₂ for 90 sec with a flow rate of 30 μl/min between runs.

Binder	Kd
B1	6 nM
B2	20 nM
B3	3 nM
B4	30 nM
